Assay results as given in the supplement of paper PMC10724198.
± gives the standard deviation of the averaged measurements.

Experiments:
Saccharomyces cerevisiae [1] = assay: protein stability index of tFT-peptide fusion (C-terminal peptide) (PSI (0-1 scale)); higher = more stable (slower turnover)
Method: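 MPS profiling in S. cerevisiae of the tFT-X12 degron library: putative degron peptides plus stable controls, 12 aa, fused to the C-terminus of a sfGFP-mCherry timer. Cells are FACS-sorted into 8 mCherry/sfGFP bins and deep-sequenced. PSI runs from 0 (unstable) to 1 (stable). Backgrounds are wild type, das1Δ and doa10Δ at 30 °C, and wild type, das1Δ, cdc34-1 and cdc53-1 at 37 °C; 2-3 technical replicates each.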

Saccharomyces cerevisiae [2] = assay: as above; conditions: genetic background: wild type; temperature: 30 C
[3] = genetic background: cdc34-1, temperature: 37 C
[4] = genetic background: cdc53-1, temperature: 37 C
[5] = genetic background: das1 deletion, temperature: 30 C
[6] = genetic background: das1 deletion, temperature: 37 C
[7] = genetic background: doa10 deletion, temperature: 30 C
[8] = genetic background: wild type, temperature: 30 C
[9] = genetic background: wild type, temperature: 37 C
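Further: PSI is a weighted mean of sequencing reads over stability bins, variants kept only with over 10 reads, mCherry proximal and sfGFP distal, peptide attached via GGGS linker.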

Sequence	protein stability index (Saccharomyces cerevisiae [1]; [3])	protein stability index (Saccharomyces cerevisiae [1]; [4])	protein stability index (Saccharomyces cerevisiae [1]; [5])	protein stability index (Saccharomyces cerevisiae [1]; [6])	protein stability index (Saccharomyces cerevisiae [1]; [7])	protein stability index (Saccharomyces cerevisiae [1]; [8])	protein stability index (Saccharomyces cerevisiae [1]; [9])	protein stability index (Saccharomyces cerevisiae [2])
GFSPLFVLVFGV	0.47 ± 0.012	0.486 ± 0.024	0.312 ± 0.027	0.518 ± 0.012	0.333 ± 0.016	0.311 ± 0.013	0.489 ± 0.011	0.4261 ± 0.0035
PSPVPPPSSPSP	0.682 ± 0.029	0.728 ± 0.027	0.67 ± 0.026	0.717 ± 0.022	0.674 ± 0.021	0.684 ± 0.029	0.7075 ± 0.0063	0.71 ± 0.012
VVLRCGCLVFIN	0.419 ± 0.027	0.5767 ± 0.0053	0.398 ± 0.023	0.6443 ± 0.0057	0.0928 ± 0.0026	0.105 ± 0.017	0.0809 ± 0.0089	0.134 ± 0.051
RNWVVDGWRRFP	0.656 ± 0.03	0.7425 ± 0.0034	0.684 ± 0.019	0.73543 ± 0.00011	0.17 ± 0.0075	0.192 ± 0.039	0.525 ± 0.031	0.282 ± 0.069
LFYVCPFVCFLC	0.554 ± 0.044	0.6288 ± 0.001	0.516 ± 0.017	0.61052 ± 9.9e-05	0.307 ± 0.0078	0.335 ± 0.026	0.438 ± 0.033	0.324 ± 0.058
SGRATSSRTSEP	0.67 ± 0.035	0.72963 ± 0.00027	0.661 ± 0.01	0.713 ± 0.0042	0.662 ± 0.03	0.6625 ± 0.0048	0.7036 ± 0.0011	0.78 ± 0.024
ARKWVAVTVTLW	0.137 ± 0.038	0.232 ± 0.013	0.187 ± 0.036	0.3519 ± 0.00085	0.148 ± 0.021	0.189 ± 0.029	0.317 ± 0.011	0.267 ± 0.043
LFRGVWYYFLVR	0.486 ± 0.041	0.5274 ± 0.0022	0.445 ± 0.021	0.61 ± 0.0087	0.504 ± 0.029	0.438 ± 0.029	0.586 ± 0.019	0.507 ± 0.028
MWRWASKCRFSM	0.668 ± 0.025	0.706 ± 0.015	0.634 ± 0.015	0.759 ± 0.0097	0.231 ± 0.012	0.245 ± 0.022	0.515 ± 0.047	0.367 ± 0.011
LKFSLLLPVQVI	0.327 ± 0.014	0.3735 ± 0.0026	0.301 ± 0.03	0.403 ± 0.0053	0.253 ± 0.0088	0.283 ± 0.025	0.337 ± 0.0053	0.3606 ± 0.0013
FCVGVVIQLSGV	0.435 ± 0.053	0.491 ± 0.034	0.311 ± 0.035	0.499 ± 0.0053	0.296 ± 0.0032	0.326 ± 0.021	0.473 ± 0.014	0.415 ± 0.0067
CRFYIRITRRYS	0.491 ± 0.017	0.576 ± 0.024	0.541 ± 0.041	0.584 ± 0.032	0.156 ± 0.025	0.132 ± 0.033	0.255 ± 0.031	0.21 ± 0.025
YVLLSRVSVFSA	0.446 ± 0.0078	0.464 ± 0.031	0.378 ± 0.019	0.533 ± 0.0079	0.297 ± 0.011	0.329 ± 0.037	0.501 ± 0.028	0.421 ± 0.035
WGLGWRGALVAV	0.417 ± 0.0089	0.42 ± 0.017	0.321 ± 0.033	0.4845 ± 0.0034	0.269 ± 0.0084	0.324 ± 0.027	0.454 ± 0.0095	0.385 ± 0.062
DPPRPIMRIHMI	0.553 ± 0.065	0.651 ± 0.042	0.671 ± 0.059	0.719 ± 0.016	0.115 ± 0.021	0.111 ± 0.015	0.171 ± 0.027	0.181 ± 0.0027
